Entries after “also recorded” stand apart in the source; their conditions may differ.
Legend:
[1] = biological target: T1, C. albicans HSP90 (Candida albicans, UniProt P46598); test: ADP-Glo assay, HSP90 ATPase activity; format: biochemical; details: HSP90 2.5 µM, 1 mM ATP, 1 h 30 °C; Aha1 alone: up to, at 8-fold molar excess; co-incubation: 20 µM each
T1 construct: made in house; host or cells: E. coli BL21(DE3)
Method: The ADP-Glo™ assay (Promega GmbH, Waldorf, Germany) was performed according to the manufacturer’s protocol. […] The reaction mixture was incubated for 1 h at 30 °C. After 5 min re-tempering to room temperature, 5 µL of ADP-Glo reagent was added to the samples to terminate the kinase reaction and deplete the remaining ATP for 40 min at room temperature. Afterward, 10 µL Kinase Detection Reagent was added to convert the generated ADP back to ATP. In that way, synthesized ATP was measured in a luciferase/luciferin reaction. Luminescence was detected with an Infinite M200 Pro (Tecan, Männedorf, Switzerland) in a 384-well microtiter plate (Art. No. 781075, Greiner Bio-One GmbH, Frickenhausen, Germany) after 40 min for 100 µM ATP samples, or 60 min for 1 mM ATP samples. The luminescence intensity of the sample containing only HSP90 was set to 100%, and the luminescence intensities of the other samples were related to it.

[2] = system: S. cerevisiae HSP90; details: cited from earlier work
[3] = biological target: T2, C. albicans HSP90–Sba1 binding (Candida albicans, UniProt P46598); test: FRET inhibitor screening assay, C. albicans HSP90-Sba1 binding; details: 10 or 100 µM (Sba1 20 µM), triplicates, 3 mM ATP, 1% DMSO, 15 min 30 °C
T2 construct: made in house; host or cells: E. coli BL21(DE3)
Text: We used the Z′ factor (Z′) to optimize the FRET assays for screening purposes. Z′ represents a simple statistical parameter for the quality assessment and optimization of HTS assays and screening assays in general. It is a measure that determines the degree of signal separation between binding and non-binding data sets. Calculation of the Z′ factor is based on the standard deviation of the individual data sets as well as their general signal separation. Values ≥ 0.5 can be classified as excellent for screening purposes. […] Consequently, the fluorescence intensity of the donor decreases (FLDD). […] To obtain an informative Z′ value, we calculated it based on at least three independent experiments amounting to 144 samples for both binding and non-binding control data sets (Figure 4B,E). […] We defined the ‘hit threshold’ as a decrease in readout signal of more than 3 standard deviations (SDs) from the mean signal of the binding control. […]
FRET experiments were carried out in 384-well microtiter plates (Art. No. 3766 Corning, NY, USA, or Art. No. 781906, Greiner Bio-One GmbH, Frickenhausen, Germany) containing a final volume of 20 µL and measured with a microplate reader Infinite M200Pro (Tecan, Männedorf, Switzerland). […] Experiments for the determination of the equilibrium dissociation constants were performed with a filter-based microplate reader Infinite F200Pro (Tecan, Männedorf, Switzerland). […]

[4] = biological target: T3, C. albicans HSP90-mNeonGreen–Sba1-mScarlet-I binding (Candida albicans, UniProt P46598, E36A); details: 20 µM added; 1 µM HSP90-mNeonGreen, 2 µM Sba1-mScarlet-I, 5 mM ATP
T3 construct: made in house; host or cells: E. coli BL21(DE3)
Method: In this investigation, 1 µM HSP90-mNeonGreen was incubated with 2 µM Sba1-mScarlet-I in reaction buffer containing 5 mM ATP either alone (UC) or with the addition of 20 µM Sba1. As a negative control, samples containing 20 µM bovine serum albumin (BSA) were used.
FRET experiments were carried out in 384-well microtiter plates (Art. No. 3766 Corning, NY, USA, or Art. No. 781906, Greiner Bio-One GmbH, Frickenhausen, Germany) containing a final volume of 20 µL and measured with a microplate reader Infinite M200Pro (Tecan, Männedorf, Switzerland). The fluorescence was measured in three channels: excitation (ex.): 488 nm/emission (em.): 525 nm (mNeonGreen fluorescence), ex.: 561 nm/em.: 610 nm (mScarlet-I fluorescence) and the FRET channel ex.: 488 nm/em.: 610 nm. The excitation and emission bandwidths were set to 9 and 20 nm, respectively. Experiments for the determination of the equilibrium dissociation constants were performed with a filter-based microplate reader Infinite F200Pro (Tecan, Männedorf, Switzerland). The fluorescence was measured in three channels using the following filters: ex.: 485 ± 20 nm/em.: 535 ± 20 nm (mNeonGreen channel), ex.: 535 ± 20 nm/em.: 612 ± 10 nm (mScarlet-I channel) and the FRET channel ex.: 485 ± 20 nm/em.: 612 ± 10 nm. […]

T2 sequence (P46598 whole entry): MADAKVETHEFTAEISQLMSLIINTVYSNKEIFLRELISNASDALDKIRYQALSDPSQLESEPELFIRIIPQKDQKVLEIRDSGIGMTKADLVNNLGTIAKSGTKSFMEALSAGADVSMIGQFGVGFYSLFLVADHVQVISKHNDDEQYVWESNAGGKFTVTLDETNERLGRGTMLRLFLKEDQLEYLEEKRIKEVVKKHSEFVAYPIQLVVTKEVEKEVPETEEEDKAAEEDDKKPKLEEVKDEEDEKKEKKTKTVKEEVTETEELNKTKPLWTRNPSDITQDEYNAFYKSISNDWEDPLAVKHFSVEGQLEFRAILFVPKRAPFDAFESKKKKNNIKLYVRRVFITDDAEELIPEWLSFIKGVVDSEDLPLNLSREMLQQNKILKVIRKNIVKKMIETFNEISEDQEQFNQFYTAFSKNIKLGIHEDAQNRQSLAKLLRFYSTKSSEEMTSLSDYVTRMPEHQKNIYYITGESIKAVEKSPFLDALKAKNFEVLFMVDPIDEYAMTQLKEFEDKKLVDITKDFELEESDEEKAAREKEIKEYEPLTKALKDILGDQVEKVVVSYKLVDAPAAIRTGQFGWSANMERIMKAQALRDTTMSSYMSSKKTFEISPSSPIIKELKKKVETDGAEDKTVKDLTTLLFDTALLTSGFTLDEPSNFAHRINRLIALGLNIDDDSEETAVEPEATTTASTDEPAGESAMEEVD
T1 sequence (P46598 whole entry): as above

Molecule	increase in HSP90 ATPase activity [1] [fold]	stimulation in ATPase activity ([2]; up to, 5–10-fold molar excess Aha1/HSP90, ref 32 (Wolmarans et al.))	hit identification (EmFRET/FLDD decrease of more than 3 SDs from binding control mean) [3]	effect on FRET emission (EmFRET) versus untreated control [4]	ATPase activity, % of initial value in the absence of Sba1 ([2]; decrease to up) [%]
Aha1: C. albicans co-chaperone Aha1, activator of HSP90 ATPase (A0A1D8PU72); yeast Aha1 in cited values (protein, left off: His6, N-terminal, state not stated, yeast Aha1 in cited values) MVVNNPNNWHWVDKNCLPWSVDYFKDKLINLKVTDGTNNVHISEVSSVEGDVDVSQRKGKVISLFDIKIVLTFKGNTAKDDNVSGSITIPELTYDSEVDGLQFDISIYNETAENSGITDLIKKQLIPQLRTALMKFGPDLIEINSKDIQLSQDKVTSTYTKANQSSTIAATADHPKSESKPVEKKTETHSTSNIARKVVSEKDSSTVPKYNTTTLHLEPSFNTSAEQIYLTLLDEARIGAWTRSAPVIEKFPPKEGSEFKFFGGSVSGKFLKLVPNEQIVELWRLDDWKAGHFAQLDMKLVQSSGETKLVVKFSGIPIGEEERVKNNFEERYIRSIKITFGFGAVL	7	~ 20 fold			
Sba1: unlabeled C. albicans HSP90 co-chaperone Sba1 (UniProtKB A0A1D8PQ94), His6-tagged; yeast Sba1 in cited values (protein, left off: His6, N-terminal, state not stated, unlabeled C. albicans HSP90 co-chaperone Sba1 (UniProtKB A0A1D8PQ94), His6-tagged; yeast Sba1 in cited values) MSSTTTQTPTVLWAQRSSEDDAAKNIIYLTIQISDPIDLKIDLKSDHLIIDSKSNDSVYSSIDYHLQIDFFKEIDPDQSKINTENGSHIFMILRKKDQQEEYWPRLTKEKLKYHYIKTDFDKWVDEDEQDEVKDDPNDFGGPGGPGGAMDFSQMLSGMGGLGGAGGSGGPGGVDLSALASQLGQAGGAGGAAGLDGEEGEEGEAEAKEAQEESNTTATEKE			identified as disrupting; also recorded: identified as hits	significant reduction in FRET emission	50
